Measurements from publication PMC6757032.

Biological target: pre-formed trans-SNARE complexes between V- and T-liposomes (syntaxin-1A S186C-TMR, cysteine-free SNAP-25a, synaptobrevin-2 L26C-Alexa-488) (rat), P32851
Sequence (P32851 whole entry C145A/S186C/C271A/C272A, chain 1 of 3): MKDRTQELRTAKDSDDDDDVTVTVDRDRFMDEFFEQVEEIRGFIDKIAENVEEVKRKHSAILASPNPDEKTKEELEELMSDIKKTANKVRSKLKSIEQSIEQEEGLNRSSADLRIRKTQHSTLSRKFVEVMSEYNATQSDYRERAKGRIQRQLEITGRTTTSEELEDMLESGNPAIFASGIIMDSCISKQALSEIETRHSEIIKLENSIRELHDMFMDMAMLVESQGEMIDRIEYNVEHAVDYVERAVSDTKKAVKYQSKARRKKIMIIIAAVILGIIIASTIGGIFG
Sequence (P60881 other isoform, or with tags, fused parts or gaps, stated change not applied, chain 2 of 3, further chain): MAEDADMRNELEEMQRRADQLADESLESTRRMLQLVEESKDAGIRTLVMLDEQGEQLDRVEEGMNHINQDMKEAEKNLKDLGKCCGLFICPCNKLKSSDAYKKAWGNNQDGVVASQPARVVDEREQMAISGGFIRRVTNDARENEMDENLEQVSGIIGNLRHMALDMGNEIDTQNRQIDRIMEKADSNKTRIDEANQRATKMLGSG
Sequence (P63045 other isoform, or with tags, fused parts or gaps, stated change not applied, chain 3 of 3, further chain): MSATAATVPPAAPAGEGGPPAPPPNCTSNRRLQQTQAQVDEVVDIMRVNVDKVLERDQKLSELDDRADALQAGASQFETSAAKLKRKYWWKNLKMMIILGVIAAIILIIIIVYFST

B1: full-length Bos Taurus αSNAP, P81125 1-295 (natural protein)
chain: MDNSGKEAEAMALLAEAERKVKNSQSFFSGLFGGSSKIEEACEIYARAANMFKMAKNWSAAGSAFCQAAHVHLQLQSKHDAATCFVDAGNAFKKADPQEAINCLMRAIEIYTDMGRFTIAAKHHISIAEIYETELVDIEKAIAHYEQSADYYKGEESNSSANKCLLKVAGYAAQLEQYQKAIDIYEQVGTNAMDSPLLKYSAKDYFFKAALCHFCIDMLNAKLAVQKYEELFPAFSDSRECKRIKKLLEAHEEQNVDSYTEAVKEYDSISRLDQWLTTMLLRIKKTIQGDEEDLR
modifications: here or on the partner: tetramethylrhodamine on the cysteine at residue 186 | Alexa-488 on the cysteine at residue 26
B1 was tested, and the inhibition of lipid mixing (DiD de-quenching at 37 °C) mediated by trans-SNARE complexes pre-formed between V- and T-liposomes; titration with WT αSNAP was 170 nM.
